Patent US20170088624A1 (Janssen / Centocor, published 2017)

Legend:
[1] = molecular target: T1, Full length human CD40 (huCD40) on cells (human, UniProt P25942 21-277); assay: cell-based or functional assay
Target sequence in this assay (P25942 21-277): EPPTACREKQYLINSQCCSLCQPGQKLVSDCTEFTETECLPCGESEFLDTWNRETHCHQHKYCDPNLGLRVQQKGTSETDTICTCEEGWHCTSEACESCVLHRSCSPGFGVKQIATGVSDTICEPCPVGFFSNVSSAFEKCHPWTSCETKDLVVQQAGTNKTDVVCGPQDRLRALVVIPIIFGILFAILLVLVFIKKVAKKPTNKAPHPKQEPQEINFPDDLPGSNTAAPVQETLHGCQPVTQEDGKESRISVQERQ

[2] = molecular target: T1, Full length human CD40 (huCD40) on cells; assay: cell-based or functional assay; remark: listed apart in the source
Target sequence in this assay (P25942 21-277): as above

[3] = molecular target: T1, Full length human CD40 (huCD40) on cells; assay: cell-based or functional assay; remark: listed apart in the source
[4] = molecular target: T1, Full length human CD40 (huCD40) on cells; assay: flow cytometry, human DCs
Target sequence in this assay (P25942 21-277): as above

[5] = molecular target: T1, Full length human CD40 (huCD40) on cells; assay: flow cytometry, Raji cells
Target sequence in this assay (P25942 21-277): as above

[6] = molecular target: T1, Full length human CD40 (huCD40) on cells; assay: flow cytometry, human B cells
Target sequence in this assay (P25942 21-277): as above

[7] = molecular target: T2, Macaca fascicularis (cyno) CD40 (cCD40) on cells (Macaca fascicularis (cynomolgus), UniProt P25942 21-277 (human entry)); assay: flow cytometry, cyno mature DCs
T2 construct: CD40 on cyno mature DCs
T2 chain: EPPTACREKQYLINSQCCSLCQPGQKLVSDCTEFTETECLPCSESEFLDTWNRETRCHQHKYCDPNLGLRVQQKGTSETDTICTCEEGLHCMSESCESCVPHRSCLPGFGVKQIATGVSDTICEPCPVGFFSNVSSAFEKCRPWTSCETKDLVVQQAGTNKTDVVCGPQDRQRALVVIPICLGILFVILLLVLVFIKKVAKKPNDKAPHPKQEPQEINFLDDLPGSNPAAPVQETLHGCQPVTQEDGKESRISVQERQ
Method: (§1) Human monocytes were isolated from either frozen/fresh PBMC using CD14 negative isolation kit per manufacturer's protocol (MACS Miltenyi). Cyno monocytes were isolated from fresh PBMC using CD14 positive isolation kit per manufacturer's protocol (MACS Miltenyi). To generate DCs, monocytes were cultured for 5 days in complete media RPMI (Invitrogen) in the presence of 100 ng/ml human GM-CSF and human IL-4 (Peprotech) and media was replenished every 2 days. On day 5, DCs were stimulated with 100 ng/ml LPS (Sigma) for 24 hours. Cells were then stained with each of the tested CD40 antibody at different concentration in flow cytometry buffer (PBS+1% FBS; BD Bioscience) in 100 μl volume for 30 minutes on ice followed with two washes with flow buffer. Cells were then stained for additional 30 minutes on ice with APC-conjugated anti human IgG (Jackson ImmunoResearch) at the recommended dilution 1:100 and washed twice with flow buffer. Cells were analyzed for percent positive and Mean Fluorescence Intensity (MFI) to determine the antibody binding using Fortessa (BD Bioscience).
(§2) The experiments were conducted using assays described above. 20 antibodies were characterized further based on their binding to human DCs, cyno DCs, Raji cells and HEK-Blue™ CD40L cells.

[8] = molecular target: T1, Full length human CD40 (huCD40) on cells; assay: flow cytometry, human mature DCs
Method: as §1, §2
Target sequence in this assay (P25942 21-277): as the sequence (P25942 21-277) above

[9] = molecular target: T1, Full length human CD40 (huCD40) on cells; assay: flow cytometry, HEK-Blue CD40L cells
[10] = molecular target: T1, Full length human CD40 (huCD40) on cells; assay: flow cytometry, HEK-Blue CD40L cells; remark: listed apart in the source
[11] = molecular target: T1, Full length human CD40 (huCD40) on cells; assay: flow cytometry, human DCs; separate experiment
[12] = molecular target: T1, Full length human CD40 (huCD40) on cells; assay: flow cytometry, human B cells; separate experiment
[13] = molecular target: T1, Full length human CD40 (huCD40) on cells; assay: flow cytometry, HEK-Blue CD40L cells; separate experiment
cyno CD40 (SPR analyte) [14] = molecular target: T3, cyno CD40 (SPR analyte) (Macaca fascicularis (cynomolgus), UniProt P25942 21-193 (human entry), limits assumed); assay: SPR ProteOn XPR36, mAb captured by anti-human IgG Fc, cyno CD40 as analyte, 25 C; mean of n = 3 (SD 0.07E-03)
T3 construct: also called cCD40-ECD
T3 chain: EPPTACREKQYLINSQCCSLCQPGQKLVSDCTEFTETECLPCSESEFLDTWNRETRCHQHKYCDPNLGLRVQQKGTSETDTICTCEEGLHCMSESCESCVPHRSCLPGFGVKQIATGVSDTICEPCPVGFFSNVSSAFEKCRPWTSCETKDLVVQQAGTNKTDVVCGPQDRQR
Method: (§3) Affinity measurements were performed using Surface Plasmon Resonance (SPR) using a ProteOn XPR36 system (BioRad). […] Approximately 5000 RU (response units) of mAbs were immobilized. The kinetic experiments were performed at 25° C. in running buffer (DPBS+0.01% P20+100 μg/ml BSA). To perform kinetic experiments, 200 RU of mAbs were captured followed by injections of analytes (human or cyno CD40) at 5 concentrations (in a 4-fold serial dilution). The association phase was monitored for 3 minutes at 50 μL/min, then followed by 15 minutes of buffer flow (dissociation phase). The chip surface was regenerated with two 18 second pulses of 100 mM H₃PO₄ (Sigma, Cat#7961) at 100 μL/min.
(§4) The collected data were processed using ProteOn Manager software. First, the data was corrected for background using inter-spots. Then, double reference subtraction of the data was performed by using the buffer injection for analyte injections. The kinetic analysis of the data was performed using a Langmuir 1:1 binding model. The result for each mAb was reported in the format of Ka (On-rate), Kd (Off-rate) and KD (equilibrium dissociation constant).

cyno CD40 (SPR analyte) [15] = molecular target: T3, cyno CD40 (SPR analyte); assay: SPR ProteOn XPR36, mAb captured by anti-human IgG Fc, cyno CD40 as analyte, 25 C; mean of n = 3 (SD 0.24E-09)
Method: as §3, §4
(§5) The parameters reported in this table were obtained from a 1:1 Langmuir binding model for all samples. Affinity, KD=kd/ka.

cyno CD40 (SPR analyte) [16] = molecular target: T3, cyno CD40 (SPR analyte); assay: SPR ProteOn XPR36, mAb captured by anti-human IgG Fc, cyno CD40 as analyte, 25 C; mean of n = 3 (SD 1.02E+05)
Method: as §3, §4

human CD40 (SPR analyte) [17] = molecular target: T4, human CD40 (SPR analyte) (human, UniProt P25942 21-193); assay: SPR ProteOn XPR36, mAb captured by anti-human IgG Fc, CD40 as analyte, 25 C; mean of n = 5 (SD 0.97E-03); did not fit well to 1:1 model
T4 construct: also called huCD40-ECD
Method: as §3, §4, §5

human CD40 (SPR analyte) [18] = molecular target: T4, human CD40 (SPR analyte); assay: SPR ProteOn XPR36, mAb captured by anti-human IgG Fc, CD40 as analyte, 25 C; mean of n = 5 (SD 1.51E-09); did not fit well to 1:1 model
Method: as §3, §4, §5

human CD40 (SPR analyte) [19] = molecular target: T4, human CD40 (SPR analyte); assay: SPR ProteOn XPR36, mAb captured by anti-human IgG Fc, CD40 as analyte, 25 C; mean of n = 5 (SD 1.83E+05); did not fit well to 1:1 model
Method: as §3, §4, §5

B1: C40M9 (antibody, human IgG1, lambda, V domains shown)
VH: QLQLQESGPGLVKPSEILSLTCTVSGGSISSSSYYWGWIRQPPGKGLEWIGNIYYRGDTYYSPSLKSRVTISVDTSKNQFSLKLNSVTAADTAVYYCAKGFRFDYWGQGTLVTVSS
VL: QSALTQPPSASGSPGQSVTISCTGTSSDVGGYNYVSWYQQHPGKAPKLMIYEVSKRPSGVPDRFSGSKSGNTASLTVSGLQAEDEADYYCSSYAGSNNLVFGGGTKLTVLG
B cells EC50, CD23 surface expression, with cross-linker [1]: 2.87 ng/mL | B cells EC50, CD80 surface expression, with cross-linker [1]: 13.1 ng/mL | B cells EC50, CD83 surface expression, with cross-linker [1]: 0.00668 ng/mL | B cells EC50, CD86 surface expression, with cross-linker [1]: 0.0109 ng/mL | B cells EC50, HLA-DR surface expression, with cross-linker [1]: 0.012 ng/mL | DC EC50, CD80 surface expression, with cross-linker [2]: 27.7 ng/mL | DC EC50, CD83 surface expression, with cross-linker [2]: 39.8 ng/mL | DC EC50, CD86 surface expression, with cross-linker [2]: 103 ng/mL | DC EC50, HLA-DR surface expression, with cross-linker [2]: 79.7 ng/mL | EC50, Human B cells (CD83) [3]: 0.766 ng/mL | EC50, Human B cells (CD83), separate experiment [3]: 0.145 ng/mL | EC50, Human DC (HLA-DR) [3]: 118 ng/mL | EC50, Human DC (HLA-DR), separate experiment [3]: 16.7 ng/mL | EC50, agonistic activity on HEK-Blue™ CD40L cells (NF-κB/SEAP) [3]: 13.8 ng/mL | EC50, agonistic activity on HEK-Blue™ CD40L cells (NF-κB/SEAP), separate experiment [3]: 6.21 ng/mL | EC50 [4]: 152 ng/mL | EC50 [5]: 57.1 ng/mL | EC50 [6]: 60.9 ng/mL | EC50 [7]: 45.1 ng/mL | EC50 [8]: 123 ng/mL | EC50 [9]: 94.2 ng/mL | EC50 [10]: 143 ng/mL | EC50 [11]: 46.2 ng/mL | EC50 [12]: 19.1 ng/mL | EC50 [13]: 615 ng/mL | koff (cyno CD40 (SPR analyte) [14]): 0.00126 s⁻¹ | Kd (cyno CD40 (SPR analyte) [15]): 1.42 nM | kon (cyno CD40 (SPR analyte) [16]): 901000 M⁻¹ s⁻¹ | koff (human CD40 (SPR analyte) [17]): 0.00285 s⁻¹ | Kd (human CD40 (SPR analyte) [18]): 4.09 nM | kon (human CD40 (SPR analyte) [19]): 727000 M⁻¹ s⁻¹
